# Test results published in US20230192896A1 (BIOVERATIV THERAPEUTICS, published 2023).
# Residue numbers refer to the chain shown, from its start.
# B1: BIIB-12-930 (antibody, V domains shown)
# VH: QVQLVQSGAEVKKPGASVKVSCKASGYTFTSYYMHWVRQAPGQGLEWMGIINPSGGSTSYAQKFQGRVTMTRDTSTSTVYMELSSLRSEDTAVYYCARVRQKATLLFQHWGQGTLVTVSS
# VL: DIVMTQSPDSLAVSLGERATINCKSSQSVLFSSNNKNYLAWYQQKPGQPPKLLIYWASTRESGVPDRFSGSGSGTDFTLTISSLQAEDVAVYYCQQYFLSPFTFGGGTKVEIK
# notes: IgG
# B2: BIIB-12-919 (antibody, V domains shown)
# VH: QVQLVQSGAEVKKPGASVKVSCKASGYTFTSYYMHWVRQAPGQGLEWMGVINPSGGSTSYAQKFQGRVTMTRDTSTSTVYMELSSLRSEDTAVYYCARGANIAVGRRYADYWGQGTLVTVSS
# VL: DIQMTQSPSTLSASVGDRVTITCRASQSISSWLAWYQQKPGKAPKLLIYKASSLESGVPSRFSGSGSGTEFTLTISSLQPDDFATYYCQQVSSYPTFGGGTKVEIK
# notes: IgG
# B3: BIIB-12-914 (antibody, V domains shown)
# VH: QVQLVQSGAEVKKPGASVKVSCKASGYTFTSYYMHWVRQAPGQGLEWMGIINPSGGSTSYAQKFQGRVTMTRDTSTSTVYMELSSLRSEDTAVYYCARAPRYRGTMDVWGQGTTVTVSS
# VL: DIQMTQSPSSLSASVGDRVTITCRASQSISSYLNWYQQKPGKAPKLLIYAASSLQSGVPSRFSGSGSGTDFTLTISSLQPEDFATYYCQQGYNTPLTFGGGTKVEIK
# notes: IgG; also called BIB-12-914
# B4: BIIB-12-929 (antibody, V domains shown)
# VH: B3 VH with A99D, P100Q, R101G, R103S, G104R, T105S, M106F, V108I, T114M
# VL: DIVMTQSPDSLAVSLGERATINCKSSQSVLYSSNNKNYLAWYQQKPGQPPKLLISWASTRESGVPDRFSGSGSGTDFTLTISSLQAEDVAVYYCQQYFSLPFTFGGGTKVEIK
# notes: IgG
# B5: BIIB-12-920 (antibody, V domains shown)
# VH: QVQLVQSGAEVKKPGASVKVSCKASGYTFTSYGISWVRQAPGQGLEWMGWISPYNGNTNYAQKLQGRVTMTTDTSTSTAYMELRSLRSDDTAVYYCARGSGHTTMFWGQGTLVTVSS
# VL: EIVMTQSPATLSVSPGERATLSCRASQSVSSNLAWYQQKPGQAPRLLIYSASTRATGIPARFSGSGSGTEFTLTISSLQSEDFAVYYCQQANAYPPTFGGGTKVEI
# notes: IgG
# B6: BIIB-12-922 (antibody, V domains shown)
# VH: QVQLVQSGAEVKKPGASVKVSCKASGYTFTSYYMHWVRQAPGQGLEWMGIINPSGGSTSYAQKFQGRVTMTRDTSTSTVYMELSSLRSEDTAVYYCARRGRIAGMWGQGTTVTVSS
# VL: not shown
# notes: IgG
# B7: BIIB-12-923 (antibody, V domains shown)
# VH: QVQLVQSGAEVKKPGASVKVSCKASGYTFTSYYMHWVRQAPGQGLEWMGIINPSGGSTSYAQKFQGRVTMTRDTSTSTVYMELSSLRSEDTAVYYCARGAGYLQRAFDIWGQGTMVTVSS
# VL: DIQMTQSPSTLSASVGDRVTITCRASQSISSWLAWYQQKPGKAPKLLIYKASSLESGVPSRFSGSGSGTEFTLTISSLQPDDFATYYCQQFKSLSFTFGGGTKVEIK
# notes: IgG
# B8: BIIB-12-907 (antibody, V domains shown)
# VH: QVQLQESGPGLVKPSETLSLTCAVSGYSISSGYYWAWIRQPPGKGLEWIGSIYHSGSTYYNPSLKSRVTISVDTSKNQFSLKLSSVTAADTAVYYCARESGMSGAAYWGQGTLVTVSS
# VL: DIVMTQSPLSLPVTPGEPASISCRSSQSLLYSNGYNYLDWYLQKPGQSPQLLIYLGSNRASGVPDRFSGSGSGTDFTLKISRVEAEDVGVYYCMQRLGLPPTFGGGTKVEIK
# notes: IgG
# B9: BIIB-12-913 (antibody, V domains shown)
# VH: QVQLVQSGAEVKKPGASVKVSCKASGYTFTSYGISWVRQAPGQGLEWMGWISAYNGNTNYAQKLQGRVTMTTDTSTSTAYMELRSLRSDDTAVYYCARGGVSRFWGQGTLVTVSS
# VL: EIVMTQSPATLSVSPGERATLSCRASQSVSSNLAWYQQKPGQAPRLLIYGASTRATGIPARFSGSGSGTEFTLTISSLQSEDFAVYYCQQYAPYPPLTFGGGTKVEIK
# notes: IgG
# B10: BIIB-12-909 (antibody, V domains shown)
# VH: QVQLVESGGGVVQPGRSLRLSCAASGFTFSSYGMHWVRQAPGKGLEWVAVISYDGSNKYYADSVKGRFTISRDNSKNTLYLQMNSLRAEDTAVYYCAKGKHRRRSFDIWGQGTMVTVSS
# VL: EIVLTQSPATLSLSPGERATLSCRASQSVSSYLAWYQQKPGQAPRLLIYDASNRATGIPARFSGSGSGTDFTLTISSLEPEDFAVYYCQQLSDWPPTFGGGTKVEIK
# notes: IgG
# B11: BIIB-12-924 (antibody, V domains shown)
# VH: B10 VH with H101S, R102S, R103E, S105G, F106L, D107N, I108P, M114L
# VL: DIQMTQSPSSVSASVGDRVTITCRASQGISSWLAWYQQKPGKAPKLLIYAASSLQSGVPSRFSGSGSGTDFTLTISSLQPEDFATYYCQQGNSFPLTFGGGTKVEIK
# notes: IgG
# B12: BIIB-12-1309 (antibody, V domains shown)
# VH: B10 VH with K98R, K100R, H101Y, R102T, R103S, S105Y, D107Q, I108H, M114L
# VL: B11 VL with G91A, F94L, L96I
# notes: IgG
# B13: BIIB-12-1299 (antibody, V domains shown)
# VH: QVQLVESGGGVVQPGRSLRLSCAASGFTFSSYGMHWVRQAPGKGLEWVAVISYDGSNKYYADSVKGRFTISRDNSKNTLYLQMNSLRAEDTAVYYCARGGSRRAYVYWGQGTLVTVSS
# VL: EIVMTQSPATLSVSPGERATLSCRASQSVSSNLAWYQQKPGQAPRLLIYGASTRATGIPARFSGSGSGTEFTLTISSLQSEDFAVYYCQQLNNFPITFGGGTKVEIK
# notes: IgG
# B14: BIIB-12-927 (antibody, V domains shown)
# VH: QVQLVQSGAEVKKPGASVKVSCKASGYTFTSYYMSWVRQAPGQGLEWMGIINPSGGSTSYAQKFQGRVTMTRDTSTSTVYMELSSLRSEDTAVYYCARDSGRKRYYYMDVWGKGTTVTVSS
# VL: B13 VL with L91F, N93L, F94W, I96F
# notes: IgG
# B15: BIIB-12-926 (antibody, V domains shown)
# VH: QVQLVQSGAEVKKPGASVKVSCKASGYTFTSYYMHWVRQAPGQGLEWMGIINPSGGSTSYAQKFQGRVTMTRDTSTSTVYMELSSLRSEDTAVYYCARDGRMARGASPDYWGQGTLVTVSS
# VL: B13 VL with L91H, N92S, N93F, F94W, I96P
# notes: IgG
# B16: BIIB-12-911 (antibody, V domains shown)
# VH: QVQLVESGGGVVQPGRSLRLSCAASGFTFSSYGMHWVRQAPGKGLEWVAVISYDGSNKYYADSVKGRFTISRDNSKNTLYLQMNSLRAEDTAVYYCARGRGMDVWGQGTTVTVSS
# VL: B13 VL with M4L, V13L, N32Y, G50D, T53N, E70D, Q79E, S80P, L91R, N92S
# notes: IgG
# B17: BIIB-12-910 (antibody, V domains shown)
# VH: QVQLQESGPGLVKPSQTLSLTCTVSGGSISSGGYYWSWIRQHPGKGLEWIGSIYYSGSTYYNPSLKSRVTISVDTSKNQFSLKLSSVTAADTAVYYCARGPLQRQVRYFDLWGRGTLVTVSS
# VL: B11 VL with V11L, G28S, W32Y, A34N, G91L, N92S, S93H, F94T, L96F
# notes: IgG
# B18: BIIB-12-916 (antibody, V domains shown)
# VH: B15 VH with D99G, M102Q, A103K, R104A, G105T, A106R, S107R, P108V, Y110V, L116V
# VL: B11 VL with V11L, G28S, W32Y, A34N, G91L, N92A, S93I, F94T, L96F
# notes: IgG
# B19: BIIB-12-918 (antibody, V domains shown)
# VH: QVQLVESGGGVVQPGRSLRLSCAASGFTFSSYGMHWVRQAPGKGLEWVAVISYDGSNKYYADSVKGRFTISRDNSKNTLYLQMNSLRAEDTAVYYCAKSLGGRSFDIWGQGTMVTVSS
# VL: B11 VL with V11L, G28S, S31R, W32Y, A34N, G91I, N92F, F94L, L96I
# notes: IgG
# B20: BIIB-12-921 (antibody, V domains shown)
# VH: QVQLVESGGGVVQPGRSLRLSCAASGFTFSSYGMHWVRQAPGKGLEWVAVISYDGSNKYYADSVKGRFTISRDNSKNTLYLQMNSLRAEDTAVYYCAKVGDRGTRAFDPWGQGTLVTVSS
# VL: B11 VL with S31R, S93V
# notes: IgG
# B21: BIIB-12-915 (antibody, V domains shown)
# VH: QLQLQESGPGLVKPSETLSLTCTVSGGSISSSRYYWGWIRQPPGKGLEWIGSIYYSGSTYYNPSLKSRVTISVDTSKNQFSLKLSSVTAADTAVYYCARVGGGYANPWGQGTLVTVSS
# VL: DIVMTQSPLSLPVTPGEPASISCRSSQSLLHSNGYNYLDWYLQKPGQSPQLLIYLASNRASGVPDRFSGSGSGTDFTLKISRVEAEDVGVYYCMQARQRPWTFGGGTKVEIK
# notes: IgG
# B22: BIIB-12-905 (antibody, V domains shown)
# VH: QVQLVESGGGVVQPGRSLRLSCAASGFTFSSYGMHWVRQAPGKGLEWVAVISYDGSNKYYADSVKGRFTISRDNSKNTLYLQMNSLRAEDTAVYYCAKGGTYLDTWGQGTLVTVSS
# VL: EIVLTQSPGTLSLSPGERATLSCRASQSVRSSYLAWYQQKPGQAPRLLIYGASSRATGIPDRFSGSGSGTDFTLTISRLEPEDFAVYYCQQYGRFPPTFGGGTKVEIK
# notes: IgG
# B23: BIIB-12-906 (antibody, V domains shown)
# VH: B22 VH with G99S, G100S, T101R, Y102H, L103F, T105Y, Q108R
# VL: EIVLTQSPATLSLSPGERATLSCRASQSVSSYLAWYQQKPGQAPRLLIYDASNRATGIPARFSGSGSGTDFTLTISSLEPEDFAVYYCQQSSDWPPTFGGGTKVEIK
# notes: IgG
# B24: BIIB-12-1314 (antibody, V domains shown)
# VH: B22 VH with G100T, T101R, Y102W, L103A, D104G, T105N
# VL: B11 VL with G91A, S93F, L96I
# notes: IgG
# B25: BIIB-12-1311 (antibody, V domains shown)
# VH: B22 VH with G100R, T101H, L103W, D104A, T105V
# VL: EIVLTQSPATLSLSPGERATLSCRASQSVSSYLAWYQQKPGQAPRLLIYDASNRATGIPARFSGSGSGTDFTLTISSLEPEDFAVYYCQQASNLPPTFGGGTKVEIK
# notes: IgG
# B26: BIIB-12-1300 (antibody, V domains shown)
# VH: B22 VH with K98R, G100S, T101K, D104H, T105A
# VL: B11 VL with G91A, N92S, L96P
# notes: IgG
# B27: BIIB-12-928 (antibody, V domains shown)
# VH: B22 VH with S7F, G9V
# VL: B22 VL with G93V, P97L
# notes: IgG
# B28: BIIB-12-908 (antibody, V domains shown)
# VH: B22 VH with G100P, T101R, Y102G, L103M, T105V, L111T
# VL: B11 VL with M4L, A50G, N92S, F94L, L96I
# notes: IgG
# Target: T1, non-activatable Factor X (FXn) (Homo sapiens (Human), UniProt P00742 41-488, single biotin on the C-terminal BioTag)
# T1 construct: also called BIIB-FX-015
# Assay: BLI; class meaning: paragraph 285
row,Binder,binding result
1,B1,binds
2,B2,binds
3,B3,binds
4,B4,binds
5,B5,binds
6,B6,binds
7,B7,binds
8,B8,binds
9,B9,binds
10,B10,binds
11,B11,binds
12,B12,binds
13,B13,binds
14,B14,binds
15,B15,binds
16,B16,binds
17,B17,binds
18,B18,binds
19,B19,binds
20,B20,binds
21,B21,binds
22,B22,binds
23,B23,binds
24,B24,binds
25,B25,binds
26,B26,binds
27,B27,binds
28,B28,binds
